Measured values: patent US20200079833A1 (AstraZeneca / MedImmune, published 2020)
Starred links: 1 amine or outer side, 2 acyl side, 3 side chain; linkers in the order of their positions; H or OH if unused. Non-standard residues stand in square brackets, D forms with d. Groups on a side chain read outwards from the residue. No end group written: not given here. *: point of attachment. γGlu = O=C(O)[C@H](CCC(=O)[*:2])N[*:1]; Palmitoyl = CCCCCCCCCCCCCCCC(=O)*; αMeF = C[C@](N)(Cc1ccccc1)C(=O)O; αMeK = C[C@](N)(CCCCN)C(=O)O; αMeS = C[C@](N)(CO)C(=O)O; Aib = CC(C)(N)C(=O)O

T1: glucose-dependent insulinotropic peptide (gastric inhibitory polypeptide) receptor (human, UniProt P48546 22-466)
T1 sequence (looked up): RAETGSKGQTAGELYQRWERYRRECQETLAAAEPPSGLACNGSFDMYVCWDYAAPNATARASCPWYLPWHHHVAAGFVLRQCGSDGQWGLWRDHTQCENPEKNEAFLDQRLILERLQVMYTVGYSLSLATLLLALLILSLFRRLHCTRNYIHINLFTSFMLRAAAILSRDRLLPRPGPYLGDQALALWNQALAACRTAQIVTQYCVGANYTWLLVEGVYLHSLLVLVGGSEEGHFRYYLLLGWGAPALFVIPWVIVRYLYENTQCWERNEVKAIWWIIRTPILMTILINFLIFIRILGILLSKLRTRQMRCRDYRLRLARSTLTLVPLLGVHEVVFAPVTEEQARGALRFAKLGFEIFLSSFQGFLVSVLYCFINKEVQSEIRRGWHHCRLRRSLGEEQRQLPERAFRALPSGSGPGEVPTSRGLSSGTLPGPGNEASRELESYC


How the values were obtained:
Test in all cases: cell-based or functional assay
GLP-1 receptor = GLP-1 receptor (human, UniProt P43220 24-463)
glucagon receptor = glucagon receptor (human, UniProt P47871 26-477)
Chain of glucagon receptor (P47871 26-477): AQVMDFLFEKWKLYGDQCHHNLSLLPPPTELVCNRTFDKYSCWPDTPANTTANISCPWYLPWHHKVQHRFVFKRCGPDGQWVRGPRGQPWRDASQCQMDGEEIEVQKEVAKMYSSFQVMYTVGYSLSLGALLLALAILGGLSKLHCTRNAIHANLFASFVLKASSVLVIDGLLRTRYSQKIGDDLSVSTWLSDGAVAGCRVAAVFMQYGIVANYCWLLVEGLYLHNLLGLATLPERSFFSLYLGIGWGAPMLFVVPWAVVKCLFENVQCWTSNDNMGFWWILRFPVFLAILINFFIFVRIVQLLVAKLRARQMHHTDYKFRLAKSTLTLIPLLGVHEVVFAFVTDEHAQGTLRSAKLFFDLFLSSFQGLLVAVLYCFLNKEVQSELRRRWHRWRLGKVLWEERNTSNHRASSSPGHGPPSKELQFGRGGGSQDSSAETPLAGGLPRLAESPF

[1] = target: T1, glucose-dependent insulinotropic …

Row | Binder | Primary assay EC50 (cAMP), Mean pM GLP-1R (GLP-1 receptor) [pM] | Primary assay EC50 (cAMP), n1 (GLP-1 receptor) [nM] | Primary assay EC50 (cAMP), n2 (GLP-1 receptor) [nM] | Primary assay EC50 (cAMP), n1 (glucagon receptor) [nM] | Primary assay EC50 (cAMP), n2 (glucagon receptor) [nM] | Primary assay EC50 (cAMP), n1 [1] [nM] | Primary assay EC50 (cAMP), n2 [1] [nM]
1 | H[Aib]QGS[αMeF]TSD[αMeF]SK[αMeF]LDSRRAQD[αMeF]VQ[αMeF]LMNT-NH2 (N-terminus assumed; SMILES CSCC[C@H](NC(=O)[C@H](CC(C)C)NC(=O)[C@](C)(Cc1ccccc1)NC(=O)[C@H](CCC(N)=O)NC(=O)[C@@H](NC(=O)[C@](C)(Cc1ccccc1)NC(=O)[C@H](CC(=O)O)NC(=O)[C@H](CCC(N)=O)NC(=O)[C@H](C)NC(=O)[C@H](CCCNC(=N)N)NC(=O)[C@H](CCCNC(=N)N)NC(=O)[C@H](CO)NC(=O)[C@H](CC(=O)O)NC(=O)[C@H](CC(C)C)NC(=O)[C@](C)(Cc1ccccc1)NC(=O)[C@H](CCCCN)NC(=O)[C@H](CO)NC(=O)[C@](C)(Cc1ccccc1)NC(=O)[C@H](CC(=O)O)NC(=O)[C@H](CO)NC(=O)[C@@H](NC(=O)[C@](C)(Cc1ccccc1)NC(=O)[C@H](CO)NC(=O)CNC(=O)[C@H](CCC(N)=O)NC(=O)C(C)(C)NC(=O)[C@@H](N)Cc1c[nH]cn1)[C@@H](C)O)C(C)C)C(=O)N[C@@H](CC(N)=O)C(=O)N[C@H](C(N)=O)[C@@H](C)O) [SEQ ID NO 14] | 2440 | 3.1 | 1.8 | 3 | 1.1 | 15 | 19
2 | H[Aib]QGS[αMeF]TSDK([γGlu-Palmitoyl])SE[αMeF]LDSERARD[αMeF]VA[αMeF]LEAGG-NH2 (N-terminus assumed; SMILES CCCCCCCCCCCCCCCC(=O)N[C@@H](CCC(=O)NCCCC[C@H](NC(=O)[C@H](CC(=O)O)NC(=O)[C@H](CO)NC(=O)[C@@H](NC(=O)[C@](C)(Cc1ccccc1)NC(=O)[C@H](CO)NC(=O)CNC(=O)[C@H](CCC(N)=O)NC(=O)C(C)(C)NC(=O)[C@@H](N)Cc1c[nH]cn1)[C@@H](C)O)C(=O)N[C@@H](CO)C(=O)N[C@@H](CCC(=O)O)C(=O)N[C@@](C)(Cc1ccccc1)C(=O)N[C@@H](CC(C)C)C(=O)N[C@@H](CC(=O)O)C(=O)N[C@@H](CO)C(=O)N[C@@H](CCC(=O)O)C(=O)N[C@@H](CCCNC(=N)N)C(=O)N[C@@H](C)C(=O)N[C@@H](CCCNC(=N)N)C(=O)N[C@@H](CC(=O)O)C(=O)N[C@@](C)(Cc1ccccc1)C(=O)N[C@H](C(=O)N[C@@H](C)C(=O)N[C@@](C)(Cc1ccccc1)C(=O)N[C@@H](CC(C)C)C(=O)N[C@@H](CCC(=O)O)C(=O)N[C@@H](C)C(=O)NCC(=O)NCC(N)=O)C(C)C)C(=O)O) [SEQ ID NO 13] | 16 | 0.022 | 0.0096 | 7.6 | 4.1 | 0.69 | 0.63
3 | H[Aib]EGS[αMeF]SSEVSS[αMeF]VEGEAA[αMeK]E[αMeF]VA[αMeF]VV[αMeK]GG-NH2 (N-terminus assumed; SMILES CC(C)[C@H](NC(=O)[C@H](CCC(=O)O)NC(=O)[C@H](CO)NC(=O)[C@H](CO)NC(=O)[C@](C)(Cc1ccccc1)NC(=O)[C@H](CO)NC(=O)CNC(=O)[C@H](CCC(=O)O)NC(=O)C(C)(C)NC(=O)[C@@H](N)Cc1c[nH]cn1)C(=O)N[C@@H](CO)C(=O)N[C@@H](CO)C(=O)N[C@@](C)(Cc1ccccc1)C(=O)N[C@H](C(=O)N[C@@H](CCC(=O)O)C(=O)NCC(=O)N[C@@H](CCC(=O)O)C(=O)N[C@@H](C)C(=O)N[C@@H](C)C(=O)N[C@@](C)(CCCCN)C(=O)N[C@@H](CCC(=O)O)C(=O)N[C@@](C)(Cc1ccccc1)C(=O)N[C@H](C(=O)N[C@@H](C)C(=O)N[C@@](C)(Cc1ccccc1)C(=O)N[C@H](C(=O)N[C@H](C(=O)N[C@@](C)(CCCCN)C(=O)NCC(=O)NCC(N)=O)C(C)C)C(C)C)C(C)C)C(C)C) [SEQ ID NO 12] | 2100 | 2.1 | 2.1 | 10 | 13 | 45 | 45

Continued, values first:

Row | Primary assay EC50 (cAMP), Mean pM GLP-1R (GLP-1 receptor) [pM] | Primary assay EC50 (cAMP), n1 (GLP-1 receptor) [nM] | Primary assay EC50 (cAMP), n2 (GLP-1 receptor) [nM] | Primary assay EC50 (cAMP), n1 (glucagon receptor) [nM] | Primary assay EC50 (cAMP), n2 (glucagon receptor) [nM] | Primary assay EC50 (cAMP), n1 [1] [nM] | Primary assay EC50 (cAMP), n2 [1] [nM] | Binder
4 | 90 | 0.087 | 0.093 | 100 | 100 | 100 | 100 | H[Aib]EGS[αMeF]TSDVSS[αMeF]VEGEAA[αMeK]E[αMeF]IA[αMeF]VV[αMeK]GG-NH2 (N-terminus assumed; SMILES CC[C@H](C)[C@H](NC(=O)[C@](C)(Cc1ccccc1)NC(=O)[C@H](CCC(=O)O)NC(=O)[C@](C)(CCCCN)NC(=O)[C@H](C)NC(=O)[C@H](C)NC(=O)[C@H](CCC(=O)O)NC(=O)CNC(=O)[C@H](CCC(=O)O)NC(=O)[C@@H](NC(=O)[C@](C)(Cc1ccccc1)NC(=O)[C@H](CO)NC(=O)[C@H](CO)NC(=O)[C@@H](NC(=O)[C@H](CC(=O)O)NC(=O)[C@H](CO)NC(=O)[C@@H](NC(=O)[C@](C)(Cc1ccccc1)NC(=O)[C@H](CO)NC(=O)CNC(=O)[C@H](CCC(=O)O)NC(=O)C(C)(C)NC(=O)[C@@H](N)Cc1c[nH]cn1)[C@@H](C)O)C(C)C)C(C)C)C(=O)N[C@@H](C)C(=O)N[C@@](C)(Cc1ccccc1)C(=O)N[C@H](C(=O)N[C@H](C(=O)N[C@@](C)(CCCCN)C(=O)NCC(=O)NCC(N)=O)C(C)C)C(C)C) [SEQ ID NO 10]
5 | 1860 | 1.9 | 1.8 | 28 | 28 | 28 | 28 | H[Aib]EGS[αMeF]TSDV[αMeS]S[αMeF]LEGEAA[αMeK]E[αMeF]K([γGlu-Palmitoyl])A[αMeF]VV[αMeK]GG-NH2 (N-terminus assumed; SMILES CCCCCCCCCCCCCCCC(=O)N[C@@H](CCC(=O)NCCCC[C@H](NC(=O)[C@](C)(Cc1ccccc1)NC(=O)[C@H](CCC(=O)O)NC(=O)[C@](C)(CCCCN)NC(=O)[C@H](C)NC(=O)[C@H](C)NC(=O)[C@H](CCC(=O)O)NC(=O)CNC(=O)[C@H](CCC(=O)O)NC(=O)[C@H](CC(C)C)NC(=O)[C@](C)(Cc1ccccc1)NC(=O)[C@H](CO)NC(=O)[C@](C)(CO)NC(=O)[C@@H](NC(=O)[C@H](CC(=O)O)NC(=O)[C@H](CO)NC(=O)[C@@H](NC(=O)[C@](C)(Cc1ccccc1)NC(=O)[C@H](CO)NC(=O)CNC(=O)[C@H](CCC(=O)O)NC(=O)C(C)(C)NC(=O)[C@@H](N)Cc1c[nH]cn1)[C@@H](C)O)C(C)C)C(=O)N[C@@H](C)C(=O)N[C@@](C)(Cc1ccccc1)C(=O)N[C@H](C(=O)N[C@H](C(=O)N[C@@](C)(CCCCN)C(=O)NCC(=O)NCC(N)=O)C(C)C)C(C)C)C(=O)O) [SEQ ID NO 77]
6 | 32 | 0.032 | 0.032 | 100 | 100 | 100 | 100 | H[Aib]EGS[αMeF]TSDVSS[αMeF]LEGEAA[αMeK]E[αMeF]VA[αMeF]VV[αMeK]GG-NH2 (N-terminus assumed; SMILES CC(C)C[C@H](NC(=O)[C@](C)(Cc1ccccc1)NC(=O)[C@H](CO)NC(=O)[C@H](CO)NC(=O)[C@@H](NC(=O)[C@H](CC(=O)O)NC(=O)[C@H](CO)NC(=O)[C@@H](NC(=O)[C@](C)(Cc1ccccc1)NC(=O)[C@H](CO)NC(=O)CNC(=O)[C@H](CCC(=O)O)NC(=O)C(C)(C)NC(=O)[C@@H](N)Cc1c[nH]cn1)[C@@H](C)O)C(C)C)C(=O)N[C@@H](CCC(=O)O)C(=O)NCC(=O)N[C@@H](CCC(=O)O)C(=O)N[C@@H](C)C(=O)N[C@@H](C)C(=O)N[C@@](C)(CCCCN)C(=O)N[C@@H](CCC(=O)O)C(=O)N[C@@](C)(Cc1ccccc1)C(=O)N[C@H](C(=O)N[C@@H](C)C(=O)N[C@@](C)(Cc1ccccc1)C(=O)N[C@H](C(=O)N[C@H](C(=O)N[C@@](C)(CCCCN)C(=O)NCC(=O)NCC(N)=O)C(C)C)C(C)C)C(C)C) [SEQ ID NO 11]
7 | 7.2 | 0.0084 | 0.006 | 27 | 27 | 27 | 27 | H[Aib]EGS[αMeF]TSDV[αMeS]S[αMeF]LEGEAA[αMeK]E[αMeF]IK([γGlu-Palmitoyl])[αMeF]VV[αMeK]GG-NH2 (N-terminus assumed; SMILES CCCCCCCCCCCCCCCC(=O)N[C@@H](CCC(=O)NCCCC[C@H](NC(=O)[C@@H](NC(=O)[C@](C)(Cc1ccccc1)NC(=O)[C@H](CCC(=O)O)NC(=O)[C@](C)(CCCCN)NC(=O)[C@H](C)NC(=O)[C@H](C)NC(=O)[C@H](CCC(=O)O)NC(=O)CNC(=O)[C@H](CCC(=O)O)NC(=O)[C@H](CC(C)C)NC(=O)[C@](C)(Cc1ccccc1)NC(=O)[C@H](CO)NC(=O)[C@](C)(CO)NC(=O)[C@@H](NC(=O)[C@H](CC(=O)O)NC(=O)[C@H](CO)NC(=O)[C@@H](NC(=O)[C@](C)(Cc1ccccc1)NC(=O)[C@H](CO)NC(=O)CNC(=O)[C@H](CCC(=O)O)NC(=O)C(C)(C)NC(=O)[C@@H](N)Cc1c[nH]cn1)[C@@H](C)O)C(C)C)[C@@H](C)CC)C(=O)N[C@@](C)(Cc1ccccc1)C(=O)N[C@H](C(=O)N[C@H](C(=O)N[C@@](C)(CCCCN)C(=O)NCC(=O)NCC(N)=O)C(C)C)C(C)C)C(=O)O) [SEQ ID NO 76]
